We go through 1 variant from article PMC10234869.

B1: Frey regulator of sperm-oocyte fusion 1 with C-terminal 3xFLAG tag (Frey1-3xFLAG), wild type [murine] / Signal Peptide Peptidase-like 2c, C-terminally myc-tagged (SPPL2c-myc) [murine] (parent)
chain 1: MVLAMLGALYPRAGLSLFLFYLILAGALLRPQPQRSQQSVPEEFSAPLELLQPLSGLVDDYGLRPKHPRPGGPRPLLSQAQQRKRDGPNMADYYYDVNL
chain 2: EYGLVRVVSKNWSKDYCVLYSSDYVNLPRDLHHAPLLSLHDGTKTPWCPDEDSFHQAQDSSPRQRPLHQTTTMVTRGNCSFYAKGWLAQDQGAQGLLIVSRARNQQCSDTISKPQDPSKPWPALTIPVAVLRYTDMLDIVSHTYGDTDVRVAMFAPLEPVTDYNMAIIFILAVGTVAAGGYWAGLMEANKLQRRQAQRGGGLGGHNQQQTVAAERSQRAWEDDDFEDAPMDFTPAMTGAVVTMSCSIMILLYFFYDCFVYVMIGIFSLGASTGLYSCLAPILCHLPLWRYQWVLPGQRVSVTWPLLLLAGLCAMVTVLWVIHRNEDHWAWLLQDTLGVAYCLFVLRRVRLPTFKNCTLFLLALLAFDVFFVFITPLFTKTGESIMVEVASGPADSSSHERLPMVLKVPRLSFSALTLCNQPFSILGFGDIVVPGFLVAYCHRFDMQVQSRQVYYMACTVAYAVGLLVTFVAMILMQMGQPALLYLVSSTLLTSLAVATCRQEFTLFWTGQGRAKIPAEPVAQPCIASAVGSKMKLEDAKDSRTTNRFEQAVDGESGDLESSTGDDMAEMVTLSEDEATSPEGHSESSEGWSDTNLDPNELPSGSPMALEAMLIPLIQPIPHPSELGHIRTQSRVHDSSLPWMGLHKRKGLKVKKSMSAQAPL

The variants in the first test derive from B1. Description: co-immunoprecipitation (anti-FLAG IP, Western blot quantification). Particulars: with Signal Peptide Peptidase-like 2c, transiently transfected HEK cells, n = 6, parent: 100, read off a plot. (In western blotting, separated proteins are transferred to a membrane and probed.)
On to chain 1 MVLAMLGALYLRALLTLFLFYLILAAALLRPQPQRSQQSVPEEFSAPLELLQPLSGLVDDYGLRPKHPRPGGPRPLLSQAQQRKRDGPNMADYYYDVNL, for which the percent of parent (% of Frey1 Wt) came out at 17.

A further test covers variants of B1. Description: competition co-immunoprecipitation pulling on Frey1 (anti-FLAG IP, Western blot quantification). Particulars: with Signal Peptide Peptidase-like 2c, co-expression of HA-HO-1 as competitor, value is relative to the same Frey1 variant without HA-HO-1 (EV = 100), transiently transfected HEK cells, n = 3, parent: 100, read off a plot.
Regarding chain 1 MVLAMLGALYLRALLTLFLFYLILAAALLRPQPQRSQQSVPEEFSAPLELLQPLSGLVDDYGLRPKHPRPGGPRPLLSQAQQRKRDGPNMADYYYDVNL, the co-precipitated SPPL2c, percent of no-competitor control was 59 % of EV.
